Reference: patent US20260201058A1

Experiments:
[1] = target: human PD-L1 on GS-C2 cells (cells overexpressing human PD-L1, GenScript, M00613) (human) (UniProt Q9NZQ7); assay: cell-based or functional assay
[2] = target: monkey PD-L1 (Cyno-PD-L1) on cells (monkey (cyno)); assay: flow cytometry on 293F-cyno PD-L1 cells
[3] = target: human PD-L1 on GS-C2 cells (cells overexpressing human PD-L1, GenScript, M00613) (human) (UniProt Q9NZQ7); assay: flow cytometry on GS-C2 cells

Chain of human PD-L1 on GS-C2 cells (cells overexpressing human PD-L1, GenScript, M00613) (human) (Q9NZQ7 19-290): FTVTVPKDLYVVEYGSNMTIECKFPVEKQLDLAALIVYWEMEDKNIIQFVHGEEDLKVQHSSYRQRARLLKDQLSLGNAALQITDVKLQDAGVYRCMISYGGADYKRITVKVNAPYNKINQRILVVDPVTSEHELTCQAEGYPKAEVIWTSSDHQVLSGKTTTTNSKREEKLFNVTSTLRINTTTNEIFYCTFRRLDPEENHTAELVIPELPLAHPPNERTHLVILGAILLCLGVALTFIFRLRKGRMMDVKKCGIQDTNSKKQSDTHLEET

For “control antibody Benchmark-ATE (monoclonal antibody, Atezolizumab)”, the EC50 (nM), blocking of T cell PD-1/PD-L1 signaling pathway (GS-C2 cells with Jurket-NFAT-PD1 cells, luciferase) [1] was 2.38 nM, the EC50 [2] was 1.34 nM and the EC50 [3] was 0.694 nM.
